# Residue numbers refer to the chain shown, from its start. Names may count otherwise.
# B1: DynI-3B-GFP: GFP-tagged dynamin I point mutant P793A (site 3); fails to bind endophilin I (protein)
# chain: MGNRGMEDLIPLVNRLQDAFSAIGQNADLDLPQIAVVGGQSAGKSSVLENFVGRDFLPRGSGIVTRRPLVLQLVNSTTEYAEFLHCKGKKFTDFEEVRLEIEAETDRVTGTNKGISPVPINLRVYSPHVLNLTLVDLPGMTKVPVGDQPPDIEFQIRDMLMQFVTKENCLILAVSPANSDLANSDALKIAKEVDPQGQRTIGVITKLDLMDEGTDARDVLENKLLPLRRGYIGVVNRSQKDIDGKKDITAALAAERKFFLSHPSYRHLADRMGTPYLQKVLNQQLTNHIRDTLPGLRNKLQSQLLSIEKEVDEYKNFRPDDPARKTKALLQMVQQFAVDFEKRIEGSGDQIDTYELSGGARINRIFHERFPFELVKMEFDEKELRREISYAIKNIHGIRTGLFTPDLAFEATVKKQVQKLKEPSIKCVDMVVSELTSTIRKCSEKLQQYPRLREEMERIVTTHIREREGRTKEQVMLLIDIELAYMNTNHEDFIGFANAQQRSNQMNKKKTSGNQDEILVIRKGWLTINNIGIMKGGSKEYWFVLTAENLSWYKDDEEKEKKYMLSVDNLKLRDVEKGFMSSKHIFALFNTEQRNVYKDYRQLELACETQEEVDSWKASFLRAGVYPERVGDKEKASETEENGSDSFMHSMDPQLERQVETIRNLVDSYMAIVNKTVRDLMPKTIMHLMINNTKEFIFSELLANLYSCGDQNTLMEESAEQAQRRDEMLRMYHALKEALSIIGDINTTTVSTPMPPPVDDSWLQVQSVPAGRRSPTSSPTPQRRAPAVPPARAGSRGPAPGPPPAGSALGGAPPVPSRPGASPDPFGPPPQVPSRPNRAPPGVPSRSGQASPSRPESPRPPFDL
# modifications: left off: large carriers
# B2: DynI-PB2-GFP: GFP-tagged dynamin I with Arg-772 and Arg-773 mutated to Glu; fails to bind syndapin I (protein)
# chain: B1 chain with R772E, R773E, A793P
# modifications: left off: large carriers
# B3: DynI^WT-GFP: Transfected GFP-tagged wild-type dynamin I (protein, UniProt Q05193 1-864, looked up)
# Dynamin-1: MGNRGMEDLIPLVNRLQDAFSAIGQNADLDLPQIAVVGGQSAGKSSVLENFVGRDFLPRGSGIVTRRPLVLQLVNATTEYAEFLHCKGKKFTDFEEVRLEIEAETDRVTGTNKGISPVPINLRVYSPHVLNLTLVDLPGMTKVPVGDQPPDIEFQIRDMLMQFVTKENCLILAVSPANSDLANSDALKVAKEVDPQGQRTIGVITKLDLMDEGTDARDVLENKLLPLRRGYIGVVNRSQKDIDGKKDITAALAAERKFFLSHPSYRHLADRMGTPYLQKVLNQQLTNHIRDTLPGLRNKLQSQLLSIEKEVEEYKNFRPDDPARKTKALLQMVQQFAVDFEKRIEGSGDQIDTYELSGGARINRIFHERFPFELVKMEFDEKELRREISYAIKNIHGIRTGLFTPDMAFETIVKKQVKKIREPCLKCVDMVISELISTVRQCTKKLQQYPRLREEMERIVTTHIREREGRTKEQVMLLIDIELAYMNTNHEDFIGFANAQQRSNQMNKKKTSGNQDEILVIRKGWLTINNIGIMKGGSKEYWFVLTAENLSWYKDDEEKEKKYMLSVDNLKLRDVEKGFMSSKHIFALFNTEQRNVYKDYRQLELACETQEEVDSWKASFLRAGVYPERVGDKEKASETEENGSDSFMHSMDPQLERQVETIRNLVDSYMAIVNKTVRDLMPKTIMHLMINNTKEFIFSELLANLYSCGDQNTLMEESAEQAQRRDEMLRMYHALKEALSIIGDINTTTVSTPMPPPVDDSWLQVQSVPAGRRSPTSSPTPQRRAPAVPPARPGSRGPAPGPPPAGSALGGAPPVPSRPGASPDPFGPPPQVPSRPNRAPPGVPSRSGQASPSRPESPRPPFDL
# modifications: GFP tag
# notes: Transfected GFP-tagged wild-type dynamin I
# B4: DynI-9A-GFP: GFP-tagged dynamin I R838E (site 9) mutant; abolishes amphiphysin I binding (protein, UniProt Q05193 1-864, looked up, variant R838E)
# Dynamin-1: B3 Dynamin-1 with R838E
# modifications: GFP tag
# B5: DynI^dmA-GFP: Transfected GFP-tagged dynamin I double mutant, Ser-774 and Ser-778 to Ala (non-phosphorylatable) (protein)
# chain: B1 chain with S774A, S778A, A793P
# modifications: left off: large carriers
# B6: DynI^dmE-GFP: Transfected GFP-tagged dynamin I double mutant, Ser-774 and Ser-778 to Glu (pseudo-phosphorylation) (protein)
# chain: B1 chain with S774E, S778E, A793P
# modifications: left off: large carriers
# Tested on: cerebellar granule neurons (CGNs)
# Experiment: FM4-64 synaptic vesicle recycling in transfected CGNs (Example 2)
# Format: cell-based, rat
# Conditions: single 50 mM KCl stimulus
# Experimental: The effect of overexpression of dynamin constructs on synaptic vesicle recycling in CGNs was monitored using the styryl dye FM4-64. Neurons were removed from the culture medium and left to repolarise for 10 min in incubation medium (170 mM NaCl, 3.5 mM KCl, 0.4 mM KH2PO4, 20 mM TES (N-tris[hydroxy-methyl]-methyl-2-aminoethane-sulphonic acid), 5 mM NaHCO3, 5 mM glucose, 1.2 mM Na2SO4, 1.2 mM MgCl2, 1.3 mM CaCl2, pH 7.4). Neurons were then loaded with FM4-64 by evoking SV recycling using KCl stimulation medium (incubation medium supplemented with 50 mM KCl and 10 μM FM4-64, 50 mM NaCl being removed to maintain osmolarity) for 2 min. Cells were washed with incubation medium and mounted on an epifluorescence microscope (Olympus IX81). After 10 min, FM4-64 was unloaded from the cells by exposure to a 30 s pulse of stimulation medium. Transfected neurons were visualised using a Olympus Plan-Apochromat x40 objective at 480 nm excitation and a band-pass emission filter of 515-555 nm. FM4-64 unloading was monitored at 555 nm excitation and a long pass emission filter of 600 nm. The decrease in fluorescence intensity of FM4-64 loaded nerve terminals on stimulation was visualised using a Hammamatsu Orca-ERG CCD digital camera (Hammamatsu City, Japan) and Metamorph 6.3 imaging software (Molecular Devices, Downingtown, Pa.). The extent of FM4-64 unloading was quantified by normalising the fluorescence value at the start of stimulation to an arbitrary value and monitoring the total decrease in fluorescence on unloading with the KCl stimulus. The kinetics of FM4-64 unloading were estimated by normalising the start and completion of unloading to 1 and 0 respectively. Other methods employed in this study are as described in Example 1.
# Synaptic vesicle turnover in neurons transfected with DynI-WT-GFP was indistinguishable from that in untransfected neurons. […] The extent of synaptic vesicle turnover was quantified by unloading the terminals with a single 50 mM KCl stimulus, which is considered mild. The total synaptic vesicle recycling pool was unaffected in CGNs transfected with DynI-WT-GFP, while after transfection with DynI-2B-GFP it was reduced. The inhibition can be solely accounted for by an effect on SV endocytosis, since there was no effect on the kinetics of dye unloading. Next, the effects of DynI-PB2-GFP and DynI-3B-GFP on SVE were examined. These two mutants were chosen since they specifically fail to bind syndapin I and endophilin I, respectively, providing a clear distinction between them.
# Again, there was no effect on exocytosis, indicating an inhibition of SVE.
row,Molecule,total synaptic recycling pool (FM4-64)
1,B1,56.8±4.4 % of control
2,B2,59.5±4.3 % of control
3,B3,94.0±5.1 % of control
4,B4,71.9±2.7 % of control

# Tested on: cerebellar granule neurons (CGNs)
# Experiment: FM4-64 SV turnover in transfected cerebellar granule neurons (Example 1)
# Format: cell-based, rat
# Conditions: not given
# Experimental: Primary cerebellar granule neuron (CGN) cultures were prepared from 7-day old Sprague-Dawley rat pups as previously described (Tan et al. 2003). In brief, neurons were plated on poly-D-lysine coated glass coverslips at a density of 1.5×10^5 cells/coverslip. Neurons were cultured in MEM containing Earle's salts plus 10% (v/v) foetal calf serum, 25 mM KCl, 30 mM glucose, 2 mM glutamine, 100 U/ml penicillin and 100 μg/ml streptomycin at 37° C., in a humidified atmosphere of 5% CO2. The culture medium was supplemented with 10 μM cytosine arabinoside after 24 hours. Transfections were carried out using an established calcium phosphate precipitation protocol. CGNs were transiently transfected with 1.5 μg of DNA between 7-10 days in vitro and were used 48 h later.
# The effect of overexpression of dynamin I-GFP constructs on SV recycling in CGNs was monitored using the styryl dye FM4-64 (Molecular Probes). The extent of FM4-64 loading was quantified by normalising the fluorescence value at the start of stimulation to an arbitrary value and monitoring the total decrease on unloading with a dual KCl stimulus. The rate of FM4-64 unloading (as a measure of SV exocytosis) was estimated by determining the time taken for individual nerve terminals to lose 50% of their dye content on stimulation of unloading. These values were normalised to untransfected nerve terminals within the same field of view. SV exocytosis and recycling was also monitored using the pH-sensitive VAMP-GFP (synaptopHluorin). Dynamin constructs linked to mCerulean rather than to GFP were used in this part of the study. CGNs were co-transfected with synaptopHluorin and either DynI^WT-mCerulean, DynI^dmA-mCerulean or Dyn^dmE-mCerulean and stimulated with 50 mM KCl for 20 sec. The evoked synaptopHluorin response was recorded at 500 nm excitation and 510-550 nm emission (mCerulean fluorescence was not detectable at this wavelength). Co-expression of dynamin I was confirmed by recording at 430 nm excitation. Responses were analysed by calculating the increased fluorescence of synaptopHluorin over baseline for individual nerve terminals and then normalising the maxima and minima to 1 and 0.
# To show the key role of the phosphorylation sites by independent methods in cultured neurons their role in SV turnover in nerve terminals of CGNs transfected with dynamin I-GFP was examined. SV turnover in neurons transfected with DynI^WT-GFP was indistinguishable from that in untransfected neurons (FIG. 6a-c). […] The extent of HM4-64 accumulation and thus SV turnover, was quantified from the change in fluorescence (AF) by unloading the CGN terminals with two sequential KCl stimuli (S1 and S2) (FIG. 6j). The total SV recycling pool was reduced by approximately 70% in CGNs transfected with DynI^dmA-GFP (28±3.5% of control) and 40% with DynI^dmE-GFP (64.4±6.2% of control) (FIG. 6k). However, transfection of DynI^WT-GFP had no detectable effect (100.1±5.2% of control, FIG. 6k).
row,Molecule,reduction of total SV recycling pool / SV turnover
1,B5,approximately 70%
2,B6,~40%

# Same assay, conditions: two sequential KCl stimuli
row,Molecule,total SV recycling pool (FM4-64)
1,B5,28±3.5 % of control
2,B6,64.4±6.2 % of control
3,B3,100.1±5.2 % of control

# — patent publication US20080306007A1, “AGENTS FOR PROPHYLAXIS OR TREATMENT OF NEUROLOGICAL RELATED DISEASES AND CONDITIONS” (Newcastle Innovation Limited, priority 2007, published 2008)
